Measured values as given in publication PMC9570212, “PAUF Induces Migration of Human Pancreatic Cancer Cells Exclusively via the TLR4/MyD88/NF-κB Signaling Pathway” (International Journal of Molecular Sciences, 2022).

Molecular target: human TLR4 overexpressed in Panc-1 cells (Panc-1_TLR4^OE) (human, UniProt O00206 24-839)
Assay: cell-based or functional assay

Sequence of human TLR4 overexpressed in Panc-1 cells (Panc-1_TLR4^OE) (O00206 24-839): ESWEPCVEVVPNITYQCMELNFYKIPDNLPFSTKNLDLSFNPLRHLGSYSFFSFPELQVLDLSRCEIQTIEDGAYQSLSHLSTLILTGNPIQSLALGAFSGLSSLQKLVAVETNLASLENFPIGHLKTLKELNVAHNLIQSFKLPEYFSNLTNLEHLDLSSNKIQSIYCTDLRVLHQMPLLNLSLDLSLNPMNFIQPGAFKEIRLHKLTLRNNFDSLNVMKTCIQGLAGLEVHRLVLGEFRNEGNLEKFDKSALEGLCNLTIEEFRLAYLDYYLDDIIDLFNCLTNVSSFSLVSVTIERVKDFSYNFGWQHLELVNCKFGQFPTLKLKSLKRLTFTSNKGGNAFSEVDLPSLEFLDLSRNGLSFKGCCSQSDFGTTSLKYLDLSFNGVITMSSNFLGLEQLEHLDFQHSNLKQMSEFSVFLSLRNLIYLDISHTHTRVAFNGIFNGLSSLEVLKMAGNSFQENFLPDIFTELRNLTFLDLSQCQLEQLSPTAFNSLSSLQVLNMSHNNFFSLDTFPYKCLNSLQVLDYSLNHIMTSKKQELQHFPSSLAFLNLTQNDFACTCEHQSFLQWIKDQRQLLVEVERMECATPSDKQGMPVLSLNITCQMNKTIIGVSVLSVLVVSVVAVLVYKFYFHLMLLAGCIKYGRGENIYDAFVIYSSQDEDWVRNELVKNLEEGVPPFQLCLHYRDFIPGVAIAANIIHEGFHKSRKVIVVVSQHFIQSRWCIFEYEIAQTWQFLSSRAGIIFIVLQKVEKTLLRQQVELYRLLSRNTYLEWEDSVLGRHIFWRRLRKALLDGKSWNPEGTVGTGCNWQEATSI

NF-κB dual-luciferase reporter activity in Panc-1 cells transiently overexpressing TLR4 (rPAUF 0.1 µg/mL), relative to Panc-1_trans Ctrl cells; no effect of rPAUF in control cells: 4.6 fold
B1: recombinant pancreatic adenocarcinoma up-regulated factor (PAUF) (ligand, UniProt Q96DA0 17-172, looked up)
chain: GKMYGPGGGKYFSTTEDYDHEITGLRVSVGLLLVKSVQVKLGDSWDVKLGALGGNTQEVTLQPGEYITKVFVAFQAFLRGMVMYTSKDRYFYFGKLDGQISSAYPSQEGQVLVGIYGQYQLLGIKSIGFEWNYPLEEPTTEPPVNLTYSANSPVGR
